This passage reports fold coilin recovered with anti-GFP relative to NMS results from paper PMC2839002.

In this experiment the target is YFP-SmB′ (UniProt P14678). In words: co-IP.

As for “coilin, endogenous in HeLa (from UniProt P38432 1-576) (natural protein)”, the fold coilin recovered with anti-GFP relative to NMS turned out to be 4.5 fold.
